Test results: paper PMC2923778 (Journal of Molecular Biology, 2010)

How the values were obtained:
mSPSB2(12–224) [1] = target: T1, mSPSB2(12–224) (murine, UniProt O88838 12-224); test: ITC; 100 μM peptide titrated into 10 μM mSPSB protein; 22 °C; 20 mM Tris, 150 mM sodium chloride, 2.5 mM calcium chloride, pH 8.0; single binding site model; conditions: both partners purified
T1 construct: murine SPSB2 (SSB-2), residues 12-224: lacks the first 11 residues and the C-terminal SOCS box; Uniformly 15N-labelled in one NMR experiment; also called mSPSB2ΔSB; 15N-mSPSB2(12–224); source: E. coli Origami B(DE3) pLysS, GST fusion, purified (glutathione-Sepharose, thrombin cleavage, gel filtration)
T1 sequence (looked up): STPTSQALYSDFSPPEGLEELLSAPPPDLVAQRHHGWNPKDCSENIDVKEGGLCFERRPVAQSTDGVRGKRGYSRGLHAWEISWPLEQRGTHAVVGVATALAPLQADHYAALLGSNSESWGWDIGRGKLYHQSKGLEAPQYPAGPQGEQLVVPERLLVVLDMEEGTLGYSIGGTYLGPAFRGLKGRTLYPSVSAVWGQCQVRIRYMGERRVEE

mSPSB4ΔSB (murine) = test: as above
mSPSB1ΔSB (murine) = test: as above
mSPSB2(12–224) [2] = target: T1, mSPSB2(12–224); test: as above; conditions: both partners purified; remark: listed apart in the source
Par-4 = target: T2, Par-4 (Homo sapiens, UniProt Q96IZ0); test: ITC
T2 chain: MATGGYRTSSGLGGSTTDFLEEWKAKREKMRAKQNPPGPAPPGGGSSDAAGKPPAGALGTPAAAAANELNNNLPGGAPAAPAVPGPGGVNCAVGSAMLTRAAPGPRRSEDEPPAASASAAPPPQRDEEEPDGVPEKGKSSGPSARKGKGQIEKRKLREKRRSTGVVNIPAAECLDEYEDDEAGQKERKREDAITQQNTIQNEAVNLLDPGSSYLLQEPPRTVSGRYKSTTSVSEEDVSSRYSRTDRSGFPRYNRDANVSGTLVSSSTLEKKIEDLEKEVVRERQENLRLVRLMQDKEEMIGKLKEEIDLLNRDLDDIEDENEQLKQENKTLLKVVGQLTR

hSPSB2(26–219) = target: T3, hSPSB2(26–219) (human, UniProt Q99619 26-219); test: ITC; 100 μM peptide titrated into 10 μM hSPSB protein; 20 °C; 50 mM Hepes pH 7.4, 150 mM NaCl, 1 mM DTT (hSPSB1) or 0.5 mM TCEP (hSPSB2, hSPSB4); single binding site model; conditions: both partners purified
T3 construct: human SPSB2 lacking the SOCS box region, residues 26-219; also called human SPSB2 SPRY domain; source: E. coli BL21(DE3)-R3-pRARE2, purified (Ni-Sepharose, size-exclusion); not shown: His6, N-terminal, kept
T3 sequence (looked up): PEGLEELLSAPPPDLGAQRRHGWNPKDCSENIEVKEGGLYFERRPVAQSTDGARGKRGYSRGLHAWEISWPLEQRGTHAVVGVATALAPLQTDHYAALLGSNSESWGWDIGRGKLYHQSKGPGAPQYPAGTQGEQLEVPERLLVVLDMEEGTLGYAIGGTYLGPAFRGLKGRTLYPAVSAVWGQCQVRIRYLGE

hSPSB1(24–233) = target: T4, hSPSB1(24–233) (human, UniProt Q96BD6 24-233); test: as above; conditions: both partners purified
T4 construct: human SPSB1 lacking the SOCS box region, residues 24-233; also called human SPSB1 SPRY domain; source: E. coli BL21(DE3)-R3-pRARE2, purified (Ni-Sepharose, TEV cleavage, size-exclusion, anion exchange); not shown: His6, N-terminal, cleaved
T4 sequence (looked up): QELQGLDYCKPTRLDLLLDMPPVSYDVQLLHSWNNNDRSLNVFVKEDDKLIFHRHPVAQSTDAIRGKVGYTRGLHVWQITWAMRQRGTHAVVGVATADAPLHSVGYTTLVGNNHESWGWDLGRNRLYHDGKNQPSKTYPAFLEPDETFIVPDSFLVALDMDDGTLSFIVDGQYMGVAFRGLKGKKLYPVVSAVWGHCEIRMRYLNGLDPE

B1: hPar-4(64–77) (peptide)
peptide: AAANELNNNLPGGA
notes: human prostate apoptosis response protein-4 (hPar-4), residues 64-77; also called shorter wild-type hPar-4 peptide; source: synthetic peptide (GenScript Corporation)
Kd (mSPSB2(12–224) [1]): 3100 nM
Kd (mSPSB4ΔSB (murine)): 213 nM
Kd (mSPSB1ΔSB (murine)): 210 nM
Kd (mSPSB2(12–224) [2]): 3200 nM

B2: [E68D,L69I]hPar-4(64–77) (peptide)
peptide: AAANDINNNLPGGA
notes: human prostate apoptosis response protein-4 (hPar-4), residues 64-77, E68D and L69I (DINNN motif as in VASA); also called double mutant; source: synthetic peptide (GenScript Corporation)
Kd (mSPSB4ΔSB (murine)): 33 nM
Kd (mSPSB1ΔSB (murine)): 40 nM
Kd (mSPSB2(12–224) [2]): 106 nM

B3: [E68D]hPar-4(64–77) (peptide)
peptide: AAANDLNNNLPGGA
notes: human prostate apoptosis response protein-4 (hPar-4), residues 64-77, E68D
Kd (mSPSB4ΔSB (murine)): 47 nM
Kd (mSPSB2(12–224) [2]): 208 nM

B4: [L69I]hPar-4(64–77) (peptide)
peptide: AAANEINNNLPGGA
notes: human prostate apoptosis response protein-4 (hPar-4), residues 64-77, L69I
Kd (mSPSB4ΔSB (murine)): 55 nM
Kd (mSPSB2(12–224) [2]): 1600 nM

B5: [N70A]hPar-4(64–77) (peptide)
peptide: AAANELANNLPGGA
notes: human prostate apoptosis response protein-4 (hPar-4), residues 64-77, N70A; source: synthetic peptide (GenScript Corporation)
Kd (mSPSB4ΔSB (murine)): > 50000 nM
Kd (mSPSB1ΔSB (murine)): > 50000 nM

B6: [N71A]hPar-4(64–77) (peptide)
peptide: AAANELNANLPGGA
notes: human prostate apoptosis response protein-4 (hPar-4), residues 64-77, N71A; source: synthetic peptide (GenScript Corporation)
Kd (mSPSB4ΔSB (murine)): > 50000 nM
Kd (mSPSB1ΔSB (murine)): > 50000 nM

B7: [A66D]hPar-4(59–77) (peptide)
peptide: GTPAAAADNELNNNLPGGA
notes: human prostate apoptosis response protein-4 (hPar-4), residues 59-77, A66D; source: synthetic peptide (GL Biochem)
Kd (mSPSB4ΔSB (murine)): 255 nM
Kd (mSPSB2(12–224) [2]): 4000 nM

B8: SPSB2 (protein)
chain: MGQTALAGGSSSTPTPQALYPDLSCPEGLEELLSAPPPDLGAQRRHGWNPKDCSENIEVKEGGLYFERRPVAQSTDGARGKRGYSRGLHAWEISWPLEQRGTHAVVGVATALAPLQTDHYAALLGSNSESWGWDIGRGKLYHQSKGPGAPQYPAGTQGEQLEVPERLLVVLDMEEGTLGYAIGGTYLGPAFRGLKGRTLYPAVSAVWGQCQVRIRYLGERRAEPHSLLHLSRLCVRHNLGDTRLGQVSALPLPPAMKRYLLYQ
Kd (Par-4): 1500 nM

B9: hPar-4(67–81) (peptide)
peptide: NELNNNLPGGAPAAP
notes: human prostate apoptosis response protein-4 (hPar-4), residues 67-81; source: synthetic peptide (ThermoElectron GmbH)
Kd (hSPSB2(26–219)): 1520 nM
dH (hSPSB2(26–219)): -16.2 ± 0.1 kcal/mol
stoichiometry N (hSPSB2(26–219)): 1.18
Kd (hSPSB1(24–233)): 150 nM
dH (hSPSB1(24–233)): -13.2 ± 0.1 kcal/mol
stoichiometry N (hSPSB1(24–233)): 0.94

B10: VASA(184–203) (peptide)
peptide: DINNNNNIVEDVERKREFYI
notes: DEAD-box RNA helicase VASA of Drosophila, residues 184-203; also called VASA-derived peptide; source: synthetic peptide (ThermoElectron GmbH)
Kd (hSPSB2(26–219)): 147 nM
dH (hSPSB2(26–219)): -23.9 ± 0.1 kcal/mol
stoichiometry N (hSPSB2(26–219)): 0.96
dH (hSPSB1(24–233)): -20.5 ± 0.2 kcal/mol
stoichiometry N (hSPSB1(24–233)): 0.96
